Experimental data published in patent US20220259593A1, “CONTROL OF MAMMALIAN GENE DOSAGE USING CRISPR” (The Regents of the University of California, priority 2019, published 2022).
Substitutions are numbered along the chain they refer to.

B1: cr621 (nucleic acid)
guide: GTTTAAGAGCTAAGCTGGAAACAGCATAGCAAGTTTAAATAAGACTAGTTCGTTATCAACGTGAAAACGTGGCACCAAGTTGGTGCT
modifications: listed as DNA, chemistry not fully specified
B2: cr517 (nucleic acid)
guide: B1 guide with A44G, T50C, G61T, C68A, A77G, T81C, G82T
modifications: listed as DNA, chemistry not fully specified
B3: cr740 (nucleic acid)
guide: B1 guide with A44G, T50C, G61T, C68A, G72C, C75G, A77G, T81C, G83C, C86G
modifications: listed as DNA, chemistry not fully specified
B4: cr911 (nucleic acid)
guide: B1 guide with A44G, T46A, A47C, T50C, G61T, C68A, A77G, G79A, T81C
modifications: listed as DNA, chemistry not fully specified
B5: cr470 (nucleic acid)
guide: B1 guide with G24T, A44G, T50C, G61T, C68A, A77G, T81C
modifications: listed as DNA, chemistry not fully specified
B6: cr678 (nucleic acid)
guide: B1 guide with A44G, T50C, G61T, C68A, A77G, T81C, G85A
modifications: listed as DNA, chemistry not fully specified
B7: cr585 (nucleic acid)
guide: B1 guide with A44G, T50C, G61T, C68A, A74T, A77G, T81C, T84A
modifications: listed as DNA, chemistry not fully specified
B8: cr506 (nucleic acid)
guide: B1 guide with A44C, T50G, G61T, C68A, C73G, A77G, T81C, G85C
modifications: listed as DNA, chemistry not fully specified
B9: cr733 (nucleic acid)
guide: B1 guide with A44G, T50C, G61T, C68A, C75A, C76A, A77G, T81C, G82T, G83T
modifications: listed as DNA, chemistry not fully specified
B10: cr104 (nucleic acid)
guide: B1 guide with A44G, T50C, G61T, C68A, C73A, A77G, T81C
modifications: listed as DNA, chemistry not fully specified
B11: cr215 (nucleic acid)
guide: B1 guide with A44G, T50C, G61T, C68A, G71A, A77G, T81C
modifications: listed as DNA, chemistry not fully specified
B12: cr931 (nucleic acid)
guide: B1 guide with A44G, T50C, G61T, C68A, A74C, C76T, A77G, T81C, G82A, T84G
modifications: listed as DNA, chemistry not fully specified
B13: cr876 (nucleic acid)
guide: B1 guide with A44G, T50C, G61T, C68A, A77G, T81C, G82A
modifications: listed as DNA, chemistry not fully specified
B14: cr905 (nucleic acid)
guide: B1 guide with A44G, T50C, G61T, C68A, G72A, C73T, G85A, C86T
modifications: listed as DNA, chemistry not fully specified
B15: cr394 (nucleic acid)
guide: B1 guide with A44G, T50C, G61T, A67C, C68A, A77G, T81C
modifications: listed as DNA, chemistry not fully specified
B16: cr516 (nucleic acid)
guide: B1 guide with A44C, T50G, A59G, G61T, C68A, T70C, A77G, T81C
modifications: listed as DNA, chemistry not fully specified
B17: cr879 (nucleic acid)
guide: B1 guide with A44G, T46G, T50C, T54C, T56G, G61T, C68A, A77G, T81C
modifications: listed as DNA, chemistry not fully specified
B18: cr484 (nucleic acid)
guide: B1 guide with A44G, T50C, G61T, C68A, G72C, C86G
modifications: listed as DNA, chemistry not fully specified
B19: cr818 (nucleic acid)
guide: B1 guide with C30G, A44G, T50C, G61T, C68A, A77G, T81C
modifications: listed as DNA, chemistry not fully specified
B20: cr652 (nucleic acid)
guide: B1 guide with A28C, A44G, T50C, T53G, G61T, A64G, C68A, A77G, T81C
modifications: listed as DNA, chemistry not fully specified
B21: cr199 (nucleic acid)
guide: B1 guide with A44G, T50C, G61T, A65G, C68A, A77T, T81A
modifications: listed as DNA, chemistry not fully specified
B22: cr805 (nucleic acid)
guide: B1 guide with A42G, A44G, T50C, G61T, A65T, C68A, A77G, T81C
modifications: listed as DNA, chemistry not fully specified
B23: cr477 (nucleic acid)
guide: B1 guide with A44G, T50C, T56C, G61T, C68A, A77G, T81C
modifications: listed as DNA, chemistry not fully specified
B24: cr119 (nucleic acid)
guide: B1 guide with A44G, T50C, G61T, C68A, G69T, A77G, T81C
modifications: listed as DNA, chemistry not fully specified
B25: cr886 (nucleic acid)
guide: GTTTAAGAGCTAAGCTGGAAACAGCATAGCAAGTTTAAATAAGGCTAGTCCGTTATCAAATAGAAATATTGGCAGCGAGTCGCTGCT
modifications: listed as DNA, chemistry not fully specified
B26: cr219 (nucleic acid)
guide: B1 guide with A44C, T50G, G61T, A65G, C68A, A77G, T81C
modifications: listed as DNA, chemistry not fully specified
B27: cr164 (nucleic acid)
guide: B1 guide with A44G, T50C, G61T, C68A, A74C, A77G, T81C
modifications: listed as DNA, chemistry not fully specified
B28: cr443 (nucleic acid)
guide: B1 guide with T16G, A44G, T50C, G61T, C68A, A77G, T81C
modifications: listed as DNA, chemistry not fully specified
B29: cr712 (nucleic acid)
guide: B1 guide with G24C, A44G, T50C, G61T, C68A, A77G, T81C
modifications: listed as DNA, chemistry not fully specified
B30: cr449 (nucleic acid)
guide: B25 guide with G44C, C50G, A60C, A62T, T67A, T69G
modifications: listed as DNA, chemistry not fully specified

System: K562 CRISPRi cells
Assay: Constant region variant library pooled growth screen, K562
Type: cell-based, human
Conditions: sgRNA constant region variants; activity relative to the original, un-modified constant region cr995
In short: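 Cells were selected with puromycin for 2 days and then kept in RPMI-1640 spinner cultures, with duplicates handled separately. Targeting sequences comprised 3 sgRNAs per essential gene for 10 genes plus six non-targeting controls. Activities were normalized against pairing with the unmodified scaffold.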

Molecule | Mean relative activity
B1 | 0.818
B2 | 0.8173
B3 | 0.8153
B4 | 0.8101
B5 | 0.809
B6 | 0.8081
B7 | 1.056
B8 | 0.8078
B9 | 0.807
B10 | 0.8063
B11 | 0.8059
B12 | 0.8044
B13 | 0.8037
B14 | 0.8019
B15 | 1.055
B16 | 0.8009
B17 | 0.798
B18 | 0.7978
B19 | 0.7972
B20 | 0.7959
B21 | 0.7949
B22 | 0.7927
B23 | 1.055
B24 | 0.7902
B25 | 0.7791
B26 | 0.7779
B27 | 0.7776
B28 | 0.7774
B29 | 0.7744
B30 | 0.7698
